# According to the DeepSol protein solubility set:
# Test: soluble on expression in E. coli; label from the status in PepcDB or PDB records
row,Sequence,soluble on expression in E. coli
1,MGSDKIHHHHHHSVQSIINNPAVDPHDYEPTTKVGKSVASADLVVASGIGYDGWMDKVVKSADKSKNYLRVADDLMNKKEGDNEHIWYDPRTMSKLANTLADKFAKKDPADKATFKANAKKYIASLDNLNTLINKLKSKVNGQLVDVSEPVFGYALDYLGYKVNDDHFSKSTEDGTDYSAKDIHGIETDIKEKKIAFFVNNIQASSKTVNQLVKLAEQNNVPVLKVTETLPKGKNYRTWMTSQYQQLEKIQDQATNSAK,not soluble
2,MDFPTISRSPSGPPAMDLEGPRDILVPSEDLTPDSQWDPMPGGPGSLSRMELDESSLQELVQQFEALPGDLVGPSPGGAPCPLHIATGHGLASQEIADAHGLLSAEAGRDDLLGLLHCEECPPSQTGPEEPLEPAPRLLQPPEDPDEDSDSPEWVEGASAEQEGSRSSSSSPEPWLETVPLVTPEEPPAGAQSPETLASYPAPQEVPGPCDHEDLLDGVIFGARYLGSTQLVSERNPPTSTRMAQAREAMDRVKAPDGETQPMTEVDLFVSTKRIKVLTADSQEAMMDHALHTISYTADIGCVLVLMARRRLARRPAPQDHGRRLYKMLCHVFYAEDAQLIAQAIGQAFAAAYSQFLRESGIDPSQVGVHPSPGACHLHNGDLDHFSNSDNCREVHLEKRRGEGLGVALVESGWGSLLPTAVIANLLHGGPAERSGALSIGDRLTAINGTSLVGLPLAACQAAVRETKSQTSVTLSIVHCPPVTTAIIHRPHAREQLGFCVEDGIICSLLRGGIAERGGIRVGHRIIEINGQSVVATPHARIIELLTEAYGEVHIKTMPAATYRLLTGQEQPVYL,soluble
3,MKKILILLTLCAFAFGASECDRKIDRINKEISFSKAHNDTARTLSLELALKQVQNDCAKDPMFYDKKLEAKKLKEQEVEKIEKELDALKEQKDYMSKAEYKAKKEALKEQKEKIKKLEHHHHHH,not soluble
4,MATGKGEYHMGNTMTKAIYDKFKVATPYGNKVATGAIPAEAVNIAVKVGGFKVGDQNYPINPKITFTNNTGIDIPGGTEFQFDIPVSAPDNAKDQSGGGLKVIASGHTRANNIGGLDGTMHRVAFSLPAWKSLPAGATYELDMVYYLPISGPANYTVKINNVEYAFSFEQPDLPVADLTALEHHHHHH,soluble
5,MSLGIKMRSVVVKEPGQLNIESRPVPVPGAHEVRVKIAFAGICGSDVHIYHGHNPFAKYPRVIGHEFYGIIDAVGEQVSPARIGERVAVDPVVSCGHCYPCSVGRPNVCTQLQVIGVHRDGGFSDYACVPAKNAWRIPEAISDRQATMVEPFTIAANITAQLQPTAQDIALVYGAGPMGLTIIQALKGVYGVKQVIVVDRIAERLQMARENGADLTLDNTDQPLAEQLAQRQLAPTLVIDAACHPAILQEAILLASPAARIGILGFSGEASTLTQQSITSKEISIFSSRLNSGRFPLVIDWMEKGLIRPEALITHCMPLEQVKEAMEIFANDRKTCCKVLLQLGEGHHHHHH,soluble
6,MPRPPHLCTCGQLVPHGARCSCQIQRDRERKARFDQKRPSSRERGYTHEWRKARAEFLHQHPTCAFCGAPAGVVDHVIPHKGDMTLFWDRTNWQALCKPCHDRQKQMQERYNHIISLEHHHHHH,not soluble
7,MGSDKIHHHHHHMMSTIYRHLSTARPALTKYATNAAVKSTTASSEASTLGALQYALSLDEPSHSWTKSQLKEIYHTPLLELTHAAQLQHRKWHDPTKVQLCTLMNIKSGGCSEDCKYCAQSSRNDTGLKAEKMVKVDEVIKEAEEAKRNGSTRFCLGAAWRDMKGRKSAMKRIQEMVTKVNDMGLETCVTLGMVDQDQAKQLKDAGLTAYNHNIDTSREHYSKVITTRTYDDRLQTIKNVQESGIKACTGGILGLGESEDDHIGFIYTLSNMSPHPESLPINRLVAIKGTPMAEELADPKSKKLQFDEILRTIATARIVMPKAIIRLAAGRYTMKETEQFVCFMAGCNSIFTGKKMLTTMCNGWDEDKAMLAKWGLQPMEAFKYDRS,not soluble
8,MPFIAAMWHGQHIMISFMSRPQDRVATIISRSPDGNINTMALTRMGVRVMRASGARGRAVKDARAKGGAEGLRAMVKALKGGETVAFSADVPKVSRVCLEHHHHHH,not soluble
9,METTHSLTTDNAPTEDQPILSVTDLHMVSGTHLPELKIYAGLSLVHCGRENSATTLSMTLAGRMKPISGTIELKVQDSDKVLTTPRQLHKAVALAGVPELDSLERLVPVTAAVREQLAWSQPWYRRVPRDVTKSETFINAAKLLDLPNSKEFARQSIGDLDPLTRFRLRIALALIARPHTDLLIVDDIDQIRSLRLRADLLRELKNIAASIPVVAMSANDDVDKIADHEIHVAGALQRKQKAKA,not soluble
10,MASKKASGTLPPQQQVVHKVIMVGTGGVGKSALTLQFMYDEFVEEYEPTKADSYRKKVVLDGEECSIDILDTAGQEDYSAIRDNYYRSGEGFICVFSILDMESFEATNEFREQILRVKNSDSSVPIVLVGNKGDMRDQRVVSAELCRQRAEQWGCHYVETSAKRRENVDKVFYDLMREMKRRKGGSQAQTGIDASASSGRKKRSGIKKHCTIL,not soluble
11,MEQSIFRDEKGDCPIVYLAGTLISIGSKPSARYGVCWGAGHAKNEGGPVAGSQTSLRAELTALRRTLEIALAEDITKLIIVFPSKMLGEQLEVWERRPEQHASFENSDILYRVEQLFGEAEARMYFSIDLPTPPDPRAHGYTKALQLARTMLVASRISRNSQITTVAIFAICEKEGKCDALAKYGVYWGQDDHRNEAGLVEDGQTSLRAIMCAVRSALRTAAMHGLKRVHFLTRRIDIINIIKKLAKGEEEDSPGKRNGAIFSDCSRLRSELLDISVKLVQKDVPCVELDRAEAITRGATKKLKKRDNEYERLDRQLLMIESSSSASSPESQPKIENIGDKCPTAVILNLLVRPKFGHSKVSYAVYWGENDEKNERGPVNMRAHAFQADLYAAMCALKKARSKNIRKLHLLTTSEYFKNWMENVQKKNELINDRYDVMMEFQLLLQNFESVTIEVVNSSTQGARRKMYEDAQTFFAGRNESIQKQRSIEDIQLEDPIENNIVEAESVNPESSNQIQVVYVGGACRGRGYANALAVYSVVWPIGEYGCSQGPVTGIVNNIRAKLAAVKSALQQAEQLGIASLIIRTNDQMVHDTLILQNSPIGNIDLMDDIESYKSRMRFVAYQLTTGDYARGNVVADRLAEVIVESIF,soluble
12,MGSDKIHHHHHHLEAGMNYGVWNNKGGVGKSFLSFTLALEHAHRHPERKILLADMCPQANLSEIILGGNGKGNANLEARLAQDKRKTIGGYFDERIASPHQVTGNETSYLIAASDYNQELPDNVYLLCGDPSLELQAQVINQIGSQTLPADAWKNVHMWLKDLINACARQLGREGTSVFIDCNPSFSAYTELAIVASDRLILPCSCDGSSARAVHNVENLVFDGSAYYGDKSFSKMCERFGMALPVIHSVVLNRSTLYNKDASKAFSAMFDEIKRTANDFYKRSPGSFVAGGPAFMVMPDNHSVAIVSSHLGKPLYAIKPGKYQVYEVNPQINPEPLNRYKEAIEGMEAVLL,not soluble
13,MAKTLDSPGVLVVDFGGQYAHLIARRIRELGVYSEIVPATSLDALGEALPRAAGVVLSGGPGSVWGSRHDEAAAMVLQLGKPVLGICYGHQLLAKVLGGEVGRSPLPEFGPTEVEVLDYGILLNGLPSRFKVWMSHYDAVLRPPGEAKVLARTPGSPVAAMELWGRVFGVQWHPEVRHTQYGREVLDNWLSLVGAPRTWRPGDMVSELVESVKKEVGDALAVAAVSGGVDSTVAALIAKKAIGSRLYPVFIDHGLHPEGEVERVVKLLSRLGLEPVMVDAGEEFLAALEGVGDPEEKRRVVGRVYAEVLERAARDIGAEYLVQGTIYPDVIESGARPGADTIKTHHNVGGLPKDMRLKLVEPLRYFYKDEVRLLAEKLGVPRELIWKQPVPGPGLAVRVEGPITREKLRIVRRADAIVREEVEAAGLGGKLWQYFAVLTASMATGVRGDSRSYGYVVAVRAVESVDAMTAKPAELPWWLLERIARRITSEIPEVVRVVYDITSKPPSTIEWE,soluble
14,MGSSHHHHHHGKTIFVIVPTNEEQVAFLEALAKQDELNFDWQNPPTEPGQPVVILIPSDMVEWFLEMLKAKGIPFTVYVEEGGSENLYFQGGGGGGRTGFNTAYSRCTYLVMMGEYKQLLEPGTFPSNDRLPPHLRLDKLSYLDLRDTEIALPPVIDVSLSNRDQVRQLEGQLPSTERSDLHVHFGPIKSQTIIMTPSSNERYVRRRLGLSEKDRKNLEAESQQAFAQARS,soluble
15,MKIDASRRGILTGCWRKASNGIRPPWSGDESHFLTHCTRCDACINACENNILQRGTGGYPSVNFKNNECSFCYACAQACPESLFSPRHTRAWDLQFTIGDACLAYQSVECRRCQDSCEPMAIIFRPTLSGIYQAQLNSQLCNGCGACAASCPVSAITAEYLHAH,not soluble
16,MGSDKIHHHHHHMYKEYSPCSVLAPFIYHFWEYKGETRNGLKFNIPPHGRSDFVFIVGNAADCIRNSLIMKPYHSYFFGPMNTFTELVAHTNFIYIIGVRFRPCGLFRFIDIPLNELTNQGIDSHEFPVLFSQSFIYQLCESNQNPIDAIEHELVRQVYKNNTDTEKQISYAVSLISRQKGIVSIKELATEACLGLRQFERKFKFYTGYSPKEYSRIVKFWNAIHLLKSNTSFDNFLSVAIQAGYYDTPHLYREVKRLSGNTPNAFLSLSTNEKVEVLHIEL,not soluble
17,MTAKPLPIFLLPISAIRKAMEQMSFAELLIISILSKNAKDFVTLLTKPLKNMIISVDCWLSLKLVTASSELYLLYFKRKQRVRIEKSPYDKRYKKLYLPGFTEKQWIGHIVRVFSHNNGIVLSLKPLFSFRRGKIKETVELFKGLNVRKLVNHDSRIENRQLLKLFPTPNYLRLSNDYICESILVQNFETLELLEKKLSLNDILTTNCTNLEIHYQSLSDRNLNLFMKHWIRGSNPNLQSICVNFSREMRSFGAEVFKGIDHRKTIPQENFYWGKH,not soluble
18,MRSAVSKVEESIEVAVPVSTAYNQWTQFEEFPQFMGGVERIEQQTATLTHWVTKVGGVTREFDAEIVEQIPDEQVSWTTVGGDVHQAGVVTFHRLDDRRTKVMLQMDHDSKGVVDAVGDKLGVVKHQVSEDLKRFKSFIENRGLEHHHHHH,not soluble
19,MGSDKIHHHHHHMTELLARNADCIVWLARYMERAENLARILGVAETFARDRAGRNWLAVVQINADEERFFARHRVADARTVPHFYILDPDNPNSILSSIKAARENARTLRPMISIEMWRQINRMNTWMGGLSDNAVAPANLAALCEEIKEACQLHVGITEGTFYRDQAHYFYHLGKSIERADQTTRLLDIKYHTLLPRPEDVGSALDISHWNALLKAVAGYQASRRVLAGKITPRSVAAFLLFSDSFPRSVILCVRQMDWLMTQLRTRYHLRGGVKALELLDGLRAALTDHDIDHVIDHGLHEFIDWVQSQLMAIFAEIQDSFCVTRQPSQSQSQ,not soluble
20,MSLTAAGRWRDVEMMAYKQDDAAPFRDVTRQLLFSDPRLACEWRYFEVAAGGYSTLEKHDHVHGVMIHRGKGQCLVGHHVSDVAVGDLVFIPPQTWHQFRANAGDVLGFLCLVNAERDREGHHHHHH,not soluble
21,MIVNKPQFDENELGEGTAVQVTSGNPFGRPNYSNNKHDWNAVVVEFSPLMISVAGYNKEEHDRVETMNITIDSIVKEHVTLKKLVVELPKIQCEAGPEND,not soluble
22,MGSDKIHHHHHHMKAFDRDASEPRIGLAYGPGMAEFAARNAHLVDYIEVPFEQLRFSPAVAELQQTIPFVLHCASLSVAGFVPPDDSTVDAIERTAVQTGTPWIGEHLAYISADPVGEALGGTGEPTSLSYTLCPQLSDETVRRVVDNLAALRPHFPVPLIVENSPQYFPIPGSTMGMTDFIRAITDRCDVGLLLDLSHFLITAHNTGAEVHRELARLPLERVVEVHLSGMSVQSGTAWDDHSLPASPILFELLERLLDVARPRALTFEYNWSPYFPLSVLTTHIERARQLMGLA,not soluble
